These results are taken from PMC3299734, “In Vivo Depletion of Lymphotoxin-Alpha Expressing Lymphocytes Inhibits Xenogeneic Graft-versus-Host-Disease” (PLoS ONE, 2012).

B1: human LT-α3 (soluble lymphotoxin-α homotrimer) (ligand, UniProt P01374 35-205, looked up)
chain: LPGVGLTPSAAQTARQHPKMHLAHSTLKPAAHLIGDPSKQNSLLWRANTDRAFLQDGFSLSNNSLLVPTSGIYFVYSQVVFSGKAYSPKATSSPLYLAHEVQLFSSQYPFHVPLLSSQKMVYPGLQEPWLHSMYHGAAFQLTQGDQLSTHTDGIPHLVLSPSTVFFGAFAL
modifications: labeled with biotin in the competitive blocking ELISA only
notes: lymphotoxin-alpha, human, recombinant soluble homotrimer; also called recombinant LT-α3; soluble LT-α
B2: TNFRII.Ig (TNFRII IgG fusion protein) (Fc fusion, human, UniProt P20333 23-257, looked up)
chain: LPAQVAFTPYAPEPGSTCRLREYYDQTAQMCCSKCSPGQHAKVFCTKTSDTVCDSCEDSTYTQLWNWVPECLSCGSRCSSDQVETQACTREQNRICTCRPGWYCALSKQEGCRLCAPLRKCRPGFGVARPGTETSDVVCKPCAPGTFSNTTSSTDICRPHQICNVVAIPGNASMDAVCTSTSPTRSMAPGAVHLPQPVSTRSQHTQPTPEPSTAPSTSFLLPMGPSPPAEGSTGD
modifications: labeled with SULFO-TAG NHS-ester as the detecting copy in the competitive blocking ELISA
notes: TNF receptor II (TNFRSF1B), human, fused to Ig; detected with anti-human Fc); also called TNFRII.Fc

The target of test [1] is human LT-α1β2 (lymphotoxin-α/lymphotoxin-β heterotrimer) (human) (UniProt P01374). Kind of test: ELISA; wells coated overnight with 0.5-1 µg/ml human LT-α1β2 or LT-α3, blocked with PBS with 5 mg/ml BSA; LT-βR or TNFRII IgG fusion proteins added; detected with HRP goat F(ab')2 anti-human Fc and tetramethylbenzidine; EC50 by 4-parameter fit. Background: An ELISA detects its analyte on a solid surface through an enzyme-linked reagent.

For test [2] the target is unchanged. Kind of test: ELISA; competitive blocking ELISA (Meso Scale Discovery read-out): test molecule serially diluted, incubated 2 hr with biotinylated LT-α3 or LT-α1β2, captured on streptavidin plates 30 min, then SULFO-TAG TNFRII.Ig or LT-βR.Ig added 30 min.
Test [3] concerns the target B2. Described as above. The following applies: both partners purified.
Test [4] has as its target B1. Kind of test: ELISA; wells coated overnight with 0.5-1 µg/ml human LT-α1β2 or LT-α3, blocked with PBS with 5 mg/ml BSA; LT-βR or TNFRII IgG fusion proteins added; detected with HRP goat F(ab')2 anti-human Fc and tetramethylbenzidine; EC50 by 4-parameter fit. Conditions: both partners purified.
The target in test [5] is B1. Kind of test: ELISA; competitive blocking ELISA (Meso Scale Discovery read-out): test molecule serially diluted, incubated 2 hr with biotinylated LT-α3 or LT-α1β2, captured on streptavidin plates 30 min, then SULFO-TAG TNFRII.Ig or LT-βR.Ig added 30 min. Conditions: both partners purified.

In turn, “Human LT-βR.Ig (LT-βR IgG fusion protein) (from UniProt P36941 31-227) (Fc fusion)” had an EC50 in test [1] of 0.048 nM. The IC50 in test [2] is 0.1 nM.

As for B1, in test [3], the binding result was “binds”. Turning to B2, the EC50 in test [4] worked out at 0.133 nM. In addition, in test [5], the IC50 is 0.83 nM.

The term EC50 denotes the concentration that produces a half-maximal response. Read a high EC50 as a need for much substance. Broadly, the IC50 is the concentration at which inhibition is half-maximal.
